Experimental data from patent US20180172683A1 (published 2018).
Ends that are not written are not given here. Ser‑Gly linker = flexible serine-glycine linker, six amino acids long

How the values were obtained:
[1] = biological target: T1, B-cell lymphoma extra-large protein (Bcl-xL), first 209 amino acids with N-terminal avitag (UniProt Q07817 1-209, biotin on the avitag (BirA biotin ligase); a non-biotinylated form was used as the excess competitor in solution in the off-rate assays); experiment: radiolabeled peptide off-rate, reference D1
T1 construct: range 1-209; Expressed in E. coli BL21(DE3); Used in solution (forward assays) or immobilized through biotin on streptavidin plates or beads (reverse assay, off-rate and HTSK experiments); not shown: His tag implied (pET24a NdeI/XhoI, Ni-NTA purification, anti-HIS probe)

[2] = biological target: T1, B-cell lymphoma extra-large protein …; experiment: radiolabeled HA-tagged peptide off-rate from immobilized Bcl-xL
Experimental: The radiolabeled peptides were allowed to bind to 30 pmol immobilized Bcl-xL for 1 hour in sample buffer (1×PBS, 1% (w/v) BSA, 0.1% (v/v) Tween 20, 10 μM biotin). The beads were magnetically separated, and washed 5× with sample buffer. The beads were resuspended in 1 mL of sample buffer containing 3 μM non-biotinylated Bcl-xL (˜100× molar excess relative to immobilized biotinylated Bcl-xL). At various time points, 100 μL of slurry was removed and the beads were magnetically separated and washed. The percent remaining at each time point was determined by dividing the counts per minute (cpm) on beads by total cpm (beads+washes). The peptide off-rate was determined by an exponential fit of the Percent counts on beads vs. Time (s).
The peptide ligands were made using a C-terminal HA tag, and affinity purified.

T1 sequence (Q07817 other isoform, or with tags, fused parts or gaps): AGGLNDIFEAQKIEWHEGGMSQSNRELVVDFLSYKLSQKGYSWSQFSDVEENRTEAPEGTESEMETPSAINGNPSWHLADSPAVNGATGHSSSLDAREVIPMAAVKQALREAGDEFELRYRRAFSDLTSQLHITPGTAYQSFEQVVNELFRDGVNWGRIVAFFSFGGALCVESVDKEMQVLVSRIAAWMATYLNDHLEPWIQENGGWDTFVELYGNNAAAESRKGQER

fold slower off-rate than D1 [1]: > 3 fold | koff [2]: 5.9e-07 s⁻¹
B1: D79, radiolabeled in vitro translated peptide with C-terminal serine-glycine linker and HA tag (peptide)
peptide: MIDTNVILNYKKAADHFSITM-{Ser‑Gly linker-HA tag}
modifications: also: 35S-labeled methionine
notes: Frequency rank 79 in the doped selection pool; also called peptide D79; not shown: flexible serine-glycine linker, six amino acids long; HA tag
